Here are results for eight molecules from patent publication US9944717 (BROTEIO PHARMA B V, dated 2018).

Assay [1] deals with T1, C1s-cleaved glycosylated recombinant human C2 (human, UniProt P06681 21-243; P06681 244-752, N-linked glycans).
T1 construct: Cleavage at the Arg243-|-Lys244 bond as printed; also called C1s-cleaved recombinant human C2; C1s-cleaved C2; not shown: N-terminal his-tag
T1 sequence 1: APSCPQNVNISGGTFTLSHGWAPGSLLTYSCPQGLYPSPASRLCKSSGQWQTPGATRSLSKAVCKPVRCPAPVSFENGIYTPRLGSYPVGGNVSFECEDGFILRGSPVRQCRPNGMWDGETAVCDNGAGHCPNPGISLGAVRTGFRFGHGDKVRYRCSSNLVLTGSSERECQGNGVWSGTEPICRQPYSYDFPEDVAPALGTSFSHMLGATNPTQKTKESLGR
T1 sequence 2: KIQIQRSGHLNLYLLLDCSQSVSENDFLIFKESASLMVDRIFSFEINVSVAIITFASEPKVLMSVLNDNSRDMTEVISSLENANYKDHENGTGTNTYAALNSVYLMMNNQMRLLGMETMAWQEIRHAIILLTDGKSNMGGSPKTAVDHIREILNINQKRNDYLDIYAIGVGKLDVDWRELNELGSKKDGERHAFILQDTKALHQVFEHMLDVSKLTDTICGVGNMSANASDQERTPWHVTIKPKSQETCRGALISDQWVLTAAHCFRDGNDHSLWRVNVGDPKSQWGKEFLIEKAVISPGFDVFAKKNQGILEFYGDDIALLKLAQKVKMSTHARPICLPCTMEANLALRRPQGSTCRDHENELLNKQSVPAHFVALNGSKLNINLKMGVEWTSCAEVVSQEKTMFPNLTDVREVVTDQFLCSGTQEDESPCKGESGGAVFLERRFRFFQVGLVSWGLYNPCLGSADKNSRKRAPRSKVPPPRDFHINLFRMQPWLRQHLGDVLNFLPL
The experiment in a line: ELISA, C1s-cleaved C2 coated at 200 ng per well.

Assay [2] has as its target T2, glycosylated recombinant human complement C2 with a N-terminal his-tag (human, UniProt P06681 21-752, N-linked glycans).
T2 construct: also called recombinant human C2; wild-type recombinant C2; not shown: N-terminal his-tag
T2 sequence: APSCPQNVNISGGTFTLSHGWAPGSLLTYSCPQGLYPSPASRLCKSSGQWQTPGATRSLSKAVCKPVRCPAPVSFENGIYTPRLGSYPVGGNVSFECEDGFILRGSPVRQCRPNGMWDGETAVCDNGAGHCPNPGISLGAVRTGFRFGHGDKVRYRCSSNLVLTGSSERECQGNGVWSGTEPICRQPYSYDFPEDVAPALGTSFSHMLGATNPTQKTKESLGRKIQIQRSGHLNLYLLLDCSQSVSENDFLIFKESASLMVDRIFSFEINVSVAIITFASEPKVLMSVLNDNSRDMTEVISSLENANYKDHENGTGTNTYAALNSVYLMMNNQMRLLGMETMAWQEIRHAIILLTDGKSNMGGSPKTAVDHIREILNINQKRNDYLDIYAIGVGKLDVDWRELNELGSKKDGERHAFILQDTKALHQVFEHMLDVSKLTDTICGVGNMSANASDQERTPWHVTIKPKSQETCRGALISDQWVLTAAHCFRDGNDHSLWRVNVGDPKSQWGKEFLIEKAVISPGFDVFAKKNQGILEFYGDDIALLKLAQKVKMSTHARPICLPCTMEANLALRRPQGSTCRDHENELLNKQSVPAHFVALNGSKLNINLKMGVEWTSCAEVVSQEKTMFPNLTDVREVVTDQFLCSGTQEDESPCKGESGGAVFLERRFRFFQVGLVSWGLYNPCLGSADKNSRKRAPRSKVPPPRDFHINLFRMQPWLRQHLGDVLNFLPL
The experiment in a line: ELISA, C2 coated at 25 or 200 ng per well. Here is the method: Chimeric mouse-human antibodies (human IgG1κ version for anti-C2-32, and human IgG4κ version for anti-C2-5F2.4, -13, -32, -35 and -60) were expressed using FreeStyle™ MAX CHO (CHO-S cells) Expression System (Invitrogen). Expressed chimeric mouse-human anti-human complement C2 antibodies were purified using affinity chromatography protein A columns (GE Healthcare). Using the same ELISA procedure as described in Example 3, all anti-C2 chimeric mAbs were tested for binding to high (200 ng per well) and low (25 ng per well) recombinant C2. Briefly, ELISA plates (Corning) were coated with the indicated amount of C2 in PBS overnight at 4° C. After extensive washing in PBS/0.05% Tween 20, plates were blocked with PBS/0.05% Tween 20/1% BSA fraction V (Roche) for 1 hour at RT. […] After extensive washing in PBS/0.05% Tween 20, binding of antibodies was determined with 1:5000 diluted horseradish peroxidase-conjugated goat anti-human IgG-specific (heavy and light chains) antibodies (Jackson ImmunoResearch) for 1 hour at RT, followed by a ready-to-use solution of TMB substrate (Invitrogen) for colorimetric detection. After adding 1 M H_2SO_4, optical densities were measured at a wavelength of 450 nm (reference wavelength of 655 nm) using a microplate reader (BioRad).

Assay [3] deals with T2, glycosylated recombinant human …. Put plainly: ELISA, recombinant human C2 immobilized at 2 µg/ml. Here is the method:
Chimeric mouse-human antibodies (human IgG1κ version for anti-C2-32, and human IgG4κ version for anti-C2-5F2.4, -13, -32, -35 and -60) were expressed using FreeStyle™ MAX CHO (CHO-S cells) Expression System (Invitrogen). Expressed chimeric mouse-human anti-human complement C2 antibodies were purified using affinity chromatography protein A columns (GE Healthcare). Using the same ELISA procedure as described in Example 3, all anti-C2 chimeric mAbs were tested for binding to high (200 ng per well) and low (25 ng per well) recombinant C2. Briefly, ELISA plates (Corning) were coated with the indicated amount of C2 in PBS overnight at 4° C. After extensive washing in PBS/0.05% Tween 20, plates were blocked with PBS/0.05% Tween 20/1% BSA fraction V (Roche) for 1 hour at RT. Subsequently, plates were incubated with 0, 0.00002-20.0 (10-fold dilution steps in block buffer) μg/mL protein A-purified chimeric mouse-human IgG1κ and/or IgG4κ anti-C2-5F2.4, -13, -32, -35 and -60 for 1 hour at RT. After extensive washing in PBS/0.05% Tween 20, binding of antibodies was determined with 1:5000 diluted horseradish peroxidase-conjugated goat anti-human IgG-specific (heavy and light chains) antibodies (Jackson ImmunoResearch) for 1 hour at RT, followed by a ready-to-use solution of TMB substrate (Invitrogen) for colorimetric detection. After adding 1 M H_2SO_4, optical densities were measured at a wavelength of 450 nm (reference wavelength of 655 nm) using a microplate reader (BioRad).
Binding of humanized anti-C2-5F2.4 mAbs versions VL3VH3, VL4VH3, VL3VH4, and VL4VH4 to C2 was assessed by ELISA like described above in Example 12 (recombinant human C2 was immobilized to plates at 2 µg/ml).

Assay [4] addresses T3, glycosylated recombinant human subcomponent C2a (≈70 kDa) (human, UniProt P06681 244-752, N-linked glycans).
T3 construct: Larger fragment of C1s-cleaved recombinant C2; Start 244 follows from the printed cleavage site; also called purified C2a; recombinant human C2a
T3 sequence: T1 sequence 2
The experiment in a line: Western blot of C1s-cleaved C2, non-reducing, mAb at 200 ng/mL. Here is the method: (a). Mapping of Epitopes for mAbs Anti-C2-13, -32, -35, -60 and -5F2.4 on Glycosylated Recombinant Human Subcomponents C2a and C2b with Western Blotting Glycosylated recombinant human C2 (range 125-500 ng/lane, see FIG. 9; U-protein Express) or C1s-cleaved glycosylated recombinant human C2 (range 62.5-1000 ng/lane, see FIG. 9; for C2 cleavage procedure, see Example 1(b)) were electrophorized using 4-12% Tris-Bis gels and MOPS running buffer (Invitrogen) under non-reducing conditions in pre-cast SDS-PAGE (NuPage® Novex® system). Then, the C2 proteins were electro-blotted onto a polyvinylidene fluoride (PDVF) transfer membrane (Millipore). After blocking with PBS/0.05% Tween 20/1% BSA fraction V (Roche) for 20 min at RT, PDVF membranes were incubated with anti-C2 mAbs anti-C2-C2-5F2.4 (100 ng/mL), anti-C2-13 (200 ng/mL), anti-C2-32 (200 ng/mL), anti-C2-35 (100 ng/mL) and anti-C2-60 (200 ng/mL) for 1 hour at RT. After extensive washing in PBS/0.05% Tween 20, binding of anti-C2 mAbs was determined with 1:10,000 diluted horseradish peroxidase-conjugated goat anti-mouse Fcγ-specific antibodies (Jackson ImmunoResearch) for 1 hour at RT, followed by a ready-to-use solution of TMB substrate (Sigma) for colorimetric detection.

The target in assay [5] is T2, glycosylated recombinant human …. The experiment in a line: ELISA, C2 coated at 200 ng per well.

Numbering of substitutions follows the chain as printed.

B1: mouse anti-human complement C2 antibody anti-C2-5F2.4 (mIgG2aκ) (antibody, V domains shown)
VH: EVQLQQSGAELVKPGASVKISCKASGYTFTDYNMDWVKQSHGKSLEWIGDINPNYESTGYNQKFKGKATLTVDKSSSTAYMELRSLTSEDTAVYYCAREDDHDAFAYWGQGTLVTVSA
VL: DNVLTQSPASVVVSLGQRATISCRASKSVRTSGYNYMHWYQQKPGQPPKLLIYLASNLKSGVPARFSGSGSGTDFTLNIHPVEEADAATYYCQHSRELPYTFGGGTKLEIKR
notes: also called mAb 5F2.4
Turning to B1, in assay [1], the binding result is “binds”.

B2: chimeric mouse-human IgG4κ anti-human complement C2-5F2.4 (antibody, V domains shown)
VH: B1 VH
VL: B1 VL with N2I
notes: Stabilized human IgG4 / human κ, expressed in CHO-S cells; also called chimeric anti-C2-5F2.4; chuIgG4κ anti-C2-5F2.4
As for B2, in assay [2], the binding result is “binds”.

B3: humanized IgG4/kappa anti-human complement C2-5F2.4 version VL3VH3 (antibody)
heavy: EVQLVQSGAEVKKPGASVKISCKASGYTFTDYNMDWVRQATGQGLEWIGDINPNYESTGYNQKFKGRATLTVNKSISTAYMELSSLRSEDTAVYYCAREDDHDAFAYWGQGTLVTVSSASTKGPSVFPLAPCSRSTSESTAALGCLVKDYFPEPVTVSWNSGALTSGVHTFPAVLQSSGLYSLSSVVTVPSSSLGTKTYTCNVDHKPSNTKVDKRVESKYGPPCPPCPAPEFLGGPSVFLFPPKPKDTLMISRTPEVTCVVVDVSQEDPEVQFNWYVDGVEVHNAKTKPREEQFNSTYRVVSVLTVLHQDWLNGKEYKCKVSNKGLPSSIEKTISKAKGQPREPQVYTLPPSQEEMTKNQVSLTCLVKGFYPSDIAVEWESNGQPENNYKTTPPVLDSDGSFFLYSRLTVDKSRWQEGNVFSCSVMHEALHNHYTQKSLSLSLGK
light: DNVLTQSPDSLAVSLGERATISCRASKSVRTSGYNYMHWYQQKPGQPPKLLIYLASNLKSGVPDRFSGSGSGTDFTLTISSLQAEDAATYYCQHSRELPYTFGQGTKLEIKRTVAAPSVFIFPPSDEQLKSGTASVVCLLNNFYPREAKVQWKVDNALQSGNSQESVTEQDSKDSTYSLSSTLTLSKADYEKHKVYACEVTHQGLSSPVTKSFNRGEC
notes: Stabilized human IgG4, κ; expressed with the FreeStyle 293 system
On to B3, for which, in assay [3], the binding result is “binds”.

B4: humanized IgG4/kappa anti-human complement C2-5F2.4 version VL4VH4 (antibody)
heavy: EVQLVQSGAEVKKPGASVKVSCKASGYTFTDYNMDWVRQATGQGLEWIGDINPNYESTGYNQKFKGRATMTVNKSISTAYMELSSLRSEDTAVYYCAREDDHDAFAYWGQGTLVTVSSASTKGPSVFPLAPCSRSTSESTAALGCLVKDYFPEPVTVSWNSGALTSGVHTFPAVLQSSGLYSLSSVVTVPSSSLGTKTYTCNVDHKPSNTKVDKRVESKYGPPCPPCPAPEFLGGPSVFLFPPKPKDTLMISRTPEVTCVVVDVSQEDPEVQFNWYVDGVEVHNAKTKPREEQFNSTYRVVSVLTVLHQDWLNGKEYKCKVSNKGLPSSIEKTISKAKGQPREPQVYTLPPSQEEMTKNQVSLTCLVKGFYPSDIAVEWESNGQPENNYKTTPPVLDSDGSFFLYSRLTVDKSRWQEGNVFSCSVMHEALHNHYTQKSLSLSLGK
light: B3 light with S22N
notes: as for B3
In the case of B4, the binding result in assay [3] was “binds”.

B5: humanized IgG4/kappa anti-human complement C2-5F2.4 version VL4VH3 (antibody)
heavy: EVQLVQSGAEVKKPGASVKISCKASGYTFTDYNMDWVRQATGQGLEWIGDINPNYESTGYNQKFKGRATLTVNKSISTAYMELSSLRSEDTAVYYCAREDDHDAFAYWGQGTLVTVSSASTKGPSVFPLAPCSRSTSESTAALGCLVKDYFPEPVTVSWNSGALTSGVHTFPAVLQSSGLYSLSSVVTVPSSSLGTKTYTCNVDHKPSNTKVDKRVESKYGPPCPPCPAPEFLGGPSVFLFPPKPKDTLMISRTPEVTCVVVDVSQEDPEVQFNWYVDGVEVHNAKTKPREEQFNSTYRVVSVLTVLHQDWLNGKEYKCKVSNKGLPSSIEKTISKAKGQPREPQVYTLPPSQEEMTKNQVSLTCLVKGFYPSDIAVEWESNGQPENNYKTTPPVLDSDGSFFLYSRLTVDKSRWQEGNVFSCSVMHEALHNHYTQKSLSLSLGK
light: B3 light with S22N
notes: as for B3
For B5, the binding result in assay [3] is “binds”.

B6: humanized IgG4/kappa anti-human complement C2-5F2.4 version VL3VH4 (antibody)
heavy: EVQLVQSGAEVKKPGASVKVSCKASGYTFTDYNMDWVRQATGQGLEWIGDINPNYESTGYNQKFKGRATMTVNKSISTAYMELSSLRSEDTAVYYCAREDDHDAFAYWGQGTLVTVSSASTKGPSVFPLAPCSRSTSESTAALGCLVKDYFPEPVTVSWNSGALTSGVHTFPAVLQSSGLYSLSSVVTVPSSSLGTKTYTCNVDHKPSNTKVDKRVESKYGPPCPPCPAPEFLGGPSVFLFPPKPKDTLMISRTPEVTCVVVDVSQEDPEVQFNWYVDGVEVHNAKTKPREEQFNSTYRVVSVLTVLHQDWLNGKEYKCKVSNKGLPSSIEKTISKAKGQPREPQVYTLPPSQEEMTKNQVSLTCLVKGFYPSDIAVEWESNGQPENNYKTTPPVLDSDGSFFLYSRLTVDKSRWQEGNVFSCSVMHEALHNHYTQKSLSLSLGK
light: B3 light
notes: as for B3
Take B6: the binding result in assay [3] is listed as “binds”.

B7: mouse anti-human complement C2 antibody anti-C2-60 (mIgG1κ) (antibody, V domains shown)
VH: QVALKESGPGILQPSQTLSLTCSFSGFSLSTSNMGVGWIRQPSGKGLEWLAHIWWDDDKRYNPALKSRLTISKDTSSNQVFLKIASVDTADTATYFCARIGRPTMITTWYLDVWGAGTTVTVSS
VL: DIQMTQSPASLSVSVGETVTITCRASENIYSNLAWYQQKQGKSPQLLVYAATKLADGVPSRFSGSGSGTQYSLKINSLQSEDFGNYYCQHFWNTPYTFGGGTKLEIKR
notes: Hybridoma antibody, murine IgG1κ; also called antibody 60; hybridoma 60
For B7, the binding result in assay [1], in assay [4] and in assay [5] was “binds” throughout.

B8: chimeric mouse-human IgG4κ anti-human complement C2-60 (antibody, V domains shown)
VH: B7 VH with A3Q, K5Q, E6Q
VL: B7 VL
notes: Stabilized human IgG4 / human κ, expressed in CHO-S cells; also called chimeric anti-C2-60; chuIgG4κ anti-C2-60
As to B8, the binding result in assay [2] is “binds”.
